# B1: NRC3_wobSeed46_DR1_G13A_o1 (dsDNA)
# DNA 1: GCTTACCAAGGTAAAAGGTCGTTGATGCACGCCTTGGCGATTGACAGCGTAGAATGAAGG
# DNA 2: CCTTCATTCTACGCTGTCAATCGCCAAGGCGTGCATCAACGACCTTTTACCTTGGTAAGC
# B2: NRC3_wobSeed69_DR2_T20C_o1 (dsDNA)
# DNA 1: GCAGTCAAAGTTCACTAGGCAACGTAAGATTCAGCTGCGATTGACAGCGTAGAATGAAGG
# DNA 2: CCTTCATTCTACGCTGTCAATCGCAGCTGAATCTTACGTTGCCTAGTGAACTTTGACTGC
# B3: NRC3_wobSeed138_DR5_G15T_o1 (dsDNA)
# DNA 1: GCGATACAGGGTCATCTAGAGGCCAGAGTATGGAAAGCGATTGACAGCGTAGAATGAAGG
# DNA 2: CCTTCATTCTACGCTGTCAATCGCTTTCCATACTCTGGCCTCTAGATGACCCTGTATCGC
# B4: NRC3_wobSeed113_DR4_G15T_o1 (dsDNA)
# DNA 1: GCATATGTAGGTTATCTGGGGTCATTCAGACTAGGCGCGATTGACAGCGTAGAATGAAGG
# DNA 2: CCTTCATTCTACGCTGTCAATCGCGCCTAGTCTGAATGACCCCAGATAACCTACATATGC
# B5: NRC3_wobSeed18_DR0_G23A_o1 (dsDNA)
# DNA 1: GCGATACAGGGTCAAGGCCAGAATACGCGTATTGATGCGATTGACAGCGTAGAATGAAGG
# DNA 2: CCTTCATTCTACGCTGTCAATCGCATCAATACGCGTATTCTGGCCTTGACCCTGTATCGC
# B6: NRC3_wobSeed44_DR1_T13G_o1 (dsDNA)
# DNA 1: GCTGAATGAGGTGAAAGATCAGGGAACGTGGCGTCGGCGATTGACAGCGTAGAATGAAGG
# DNA 2: CCTTCATTCTACGCTGTCAATCGCCGACGCCACGTTCCCTGATCTTTCACCTCATTCAGC
# B7: NRC3_wobSeed30_DR1_C8A_o1 (dsDNA)
# DNA 1: GCACTAGAAGGCCAAGGGTCACTCAAGATTAGTCCGGCGATTGACAGCGTAGAATGAAGG
# DNA 2: CCTTCATTCTACGCTGTCAATCGCCGGACTAATCTTGAGTGACCCTTGGCCTTCTAGTGC
# B8: NRC3_wobSeed93_DR3_A18G_o1 (dsDNA)
# DNA 1: GCAGTCAAAGTTCATCTGGGTAACGTAAGATATGCTGCGATTGACAGCGTAGAATGAAGG
# DNA 2: CCTTCATTCTACGCTGTCAATCGCAGCATATCTTACGTTACCCAGATGAACTTTGACTGC
# B9: NRC3_wobSeed135_DR5_A5C_o1 (dsDNA)
# DNA 1: GCCGCACTAGGTCATTGACAGGACAGTGAATAGTAAGCGATTGACAGCGTAGAATGAAGG
# DNA 2: CCTTCATTCTACGCTGTCAATCGCTTACTATTCACTGTCCTGTCAATGACCTAGTGCGGC
# B10: NRC3_wobSeed25_DR1_T25A_o1 (dsDNA)
# DNA 1: GCCAAACTAGGTCAAAGGTCAAAGACGAGCCAACCAGCGATTGACAGCGTAGAATGAAGG
# DNA 2: CCTTCATTCTACGCTGTCAATCGCTGGTTGGCTCGTCTTTGACCTTTGACCTAGTTTGGC
# B11: NRC3_wobSeed117_DR4_T11G_o1 (dsDNA)
# DNA 1: GCCGTCAAAGGTCAACTAAGGTAACGTAAAGCACGCGCGATTGACAGCGTAGAATGAAGG
# DNA 2: CCTTCATTCTACGCTGTCAATCGCGCGTGCTTTACGTTACCTTAGTTGACCTTTGACGGC
# B12: NRC3_wobSeed5_DR0_A15C_o1 (dsDNA)
# DNA 1: GCCCTTACGGGTCACGGTTATAGCACGGGTGGTACGGCGATTGACAGCGTAGAATGAAGG
# DNA 2: CCTTCATTCTACGCTGTCAATCGCCGTACCACCCGTGCTATAACCGTGACCCGTAAGGGC
# Legend:
# PPARg:RXRa = PPARg:RXRa (Homo sapiens, UniProt P37231;P19793 full;full); experiment: no ligand; PBM; 180 nM : 90 nM RXRa; PBS pH 7.4, 2% milk, 0.02% Triton X-100, 1 mM DTT, BSA, 0.4 mg/ml salmon testes DNA; details: tags: His kept;His cleaved; copies: 1;1; label: surface-attached array probe
# LXRb:RXRa = LXRb:RXRa (Homo sapiens, UniProt P55055;P19793 full;full); experiment: no ligand; PBM; 270 nM : 90 nM RXRa; PBS pH 7.4, 2% milk, 0.02% Triton X-100, 1 mM DTT, BSA, 0.4 mg/ml salmon testes DNA; details: tags: His kept;His cleaved; copies: 1;1; label: surface-attached array probe
# Outline: (§1)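 Binding z-scores were set against random background probes. The data came from custom Agilent 4×180K protein-binding microarrays carrying double-stranded probes with 34-nt variable regions, incubated 1 h with ligand-free nuclear receptor dimers. Partner-specific antibodies detected binding, and scanned fluorescence was regression-normalized.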
# PXR:RXRa = PXR:RXRa (Homo sapiens, UniProt O75469;P19793 full;full); experiment: as above; details: tags: His kept;His cleaved; copies: 1;1; label: surface-attached array probe
# Outline: as §1
# VDR:RXRa = VDR:RXRa (Homo sapiens, UniProt P11473;P19793 full;full); experiment: as above; details: tags: His kept;His cleaved; copies: 1;1; label: surface-attached array probe
# Outline: as §1
# LXRa:RXRa = LXRa:RXRa (Homo sapiens, UniProt Q13133;P19793 full;full); experiment: as above; details: tags: His kept;His cleaved; copies: 1;1; label: surface-attached array probe
# Outline: as §1
# RXRa = RXRa (Homo sapiens, UniProt P19793); experiment: no ligand; PBM; 180 nM; PBS pH 7.4, 2% milk, 0.02% Triton X-100, 1 mM DTT, BSA, 0.4 mg/ml salmon testes DNA; details: tags: His cleaved; chain copies: 2; label: surface-attached array probe
# FXR:RXRa = FXR:RXRa (Homo sapiens, UniProt Q96RI1;P19793 full;full); experiment: no ligand; PBM; 270 nM : 90 nM RXRa; PBS pH 7.4, 2% milk, 0.02% Triton X-100, 1 mM DTT, BSA, 0.4 mg/ml salmon testes DNA; details: tags: His kept;His cleaved; copies: 1;1; label: surface-attached array probe
# Outline: as §1
# RARg:RXRa = RARg:RXRa (Homo sapiens, UniProt P13631;P19793 full;full); experiment: as above; details: tags: His kept;His cleaved; copies: 1;1; label: surface-attached array probe
# Outline: as §1
# PPARa:RXRa = PPARa:RXRa (Homo sapiens, UniProt Q07869;P19793 full;full); experiment: as above; details: tags: GST kept;His cleaved; copies: 1;1; label: surface-attached array probe
# Outline: as §1
# RARb:RXRa = RARb:RXRa (Homo sapiens, UniProt P10826;P19793 full;full); experiment: as above; details: tags: His kept;His cleaved; copies: 1;1; label: surface-attached array probe
# Outline: as §1
# PPARg:RXRa, sequence (P37231 29-505, chain 1 of 2): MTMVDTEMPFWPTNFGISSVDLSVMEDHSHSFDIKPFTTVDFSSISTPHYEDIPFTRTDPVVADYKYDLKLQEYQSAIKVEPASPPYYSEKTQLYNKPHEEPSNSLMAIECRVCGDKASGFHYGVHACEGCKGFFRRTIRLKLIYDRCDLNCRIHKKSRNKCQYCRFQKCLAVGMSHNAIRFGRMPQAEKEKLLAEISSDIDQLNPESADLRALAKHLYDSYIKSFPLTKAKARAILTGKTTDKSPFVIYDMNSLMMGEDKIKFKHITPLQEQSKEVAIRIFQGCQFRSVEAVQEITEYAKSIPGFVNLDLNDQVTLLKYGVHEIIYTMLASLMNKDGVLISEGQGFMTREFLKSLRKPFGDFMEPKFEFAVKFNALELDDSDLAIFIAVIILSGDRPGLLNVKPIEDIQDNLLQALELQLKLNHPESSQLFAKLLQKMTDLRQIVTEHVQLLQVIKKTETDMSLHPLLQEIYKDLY
# PPARg:RXRa, sequence (P19793 whole entry, chain 2 of 2): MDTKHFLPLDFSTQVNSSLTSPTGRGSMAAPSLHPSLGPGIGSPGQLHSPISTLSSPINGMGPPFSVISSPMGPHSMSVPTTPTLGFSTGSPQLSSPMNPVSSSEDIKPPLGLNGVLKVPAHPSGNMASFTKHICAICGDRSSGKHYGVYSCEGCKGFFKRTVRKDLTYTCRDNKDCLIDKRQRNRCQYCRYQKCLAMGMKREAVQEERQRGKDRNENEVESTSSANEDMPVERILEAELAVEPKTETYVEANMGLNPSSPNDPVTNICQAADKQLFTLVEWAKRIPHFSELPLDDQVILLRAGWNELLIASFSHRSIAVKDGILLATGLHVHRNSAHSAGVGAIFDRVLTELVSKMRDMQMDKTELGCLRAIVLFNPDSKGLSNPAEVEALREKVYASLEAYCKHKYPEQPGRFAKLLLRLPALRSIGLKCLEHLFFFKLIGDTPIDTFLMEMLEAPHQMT
# PXR:RXRa, sequence (O75469 whole entry, chain 1 of 2): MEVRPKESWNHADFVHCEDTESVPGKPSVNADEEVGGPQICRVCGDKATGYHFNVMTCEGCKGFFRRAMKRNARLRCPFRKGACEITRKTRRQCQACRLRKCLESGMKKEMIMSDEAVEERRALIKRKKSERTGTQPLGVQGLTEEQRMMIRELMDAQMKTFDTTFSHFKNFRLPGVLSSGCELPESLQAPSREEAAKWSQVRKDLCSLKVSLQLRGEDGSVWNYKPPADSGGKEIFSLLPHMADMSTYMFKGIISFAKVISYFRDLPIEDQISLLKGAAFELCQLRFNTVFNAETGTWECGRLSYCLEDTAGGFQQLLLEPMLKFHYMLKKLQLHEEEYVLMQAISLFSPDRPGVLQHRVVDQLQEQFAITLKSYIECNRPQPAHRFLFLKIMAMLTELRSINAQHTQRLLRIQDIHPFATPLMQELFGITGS
# PXR:RXRa, sequence (P19793 whole entry, chain 2 of 2): as the sequence (P19793 whole entry, chain 2 of 2) above
# LXRb:RXRa, sequence (P55055 whole entry, chain 1 of 2): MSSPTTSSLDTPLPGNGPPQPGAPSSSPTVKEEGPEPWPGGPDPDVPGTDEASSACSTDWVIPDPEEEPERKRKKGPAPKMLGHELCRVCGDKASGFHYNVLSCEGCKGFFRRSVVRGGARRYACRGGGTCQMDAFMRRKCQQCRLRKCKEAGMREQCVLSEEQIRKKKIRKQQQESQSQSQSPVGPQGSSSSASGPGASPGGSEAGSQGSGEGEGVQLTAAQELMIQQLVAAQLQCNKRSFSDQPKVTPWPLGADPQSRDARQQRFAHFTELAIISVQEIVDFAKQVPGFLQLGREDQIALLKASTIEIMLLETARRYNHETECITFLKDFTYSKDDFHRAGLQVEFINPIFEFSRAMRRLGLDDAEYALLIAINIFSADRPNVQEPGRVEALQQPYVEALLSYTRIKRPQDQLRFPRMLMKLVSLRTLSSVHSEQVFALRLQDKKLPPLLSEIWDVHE
# LXRb:RXRa, sequence (P19793 whole entry, chain 2 of 2): as the sequence (P19793 whole entry, chain 2 of 2) above
# LXRa:RXRa, sequence (Q13133 whole entry, chain 1 of 2): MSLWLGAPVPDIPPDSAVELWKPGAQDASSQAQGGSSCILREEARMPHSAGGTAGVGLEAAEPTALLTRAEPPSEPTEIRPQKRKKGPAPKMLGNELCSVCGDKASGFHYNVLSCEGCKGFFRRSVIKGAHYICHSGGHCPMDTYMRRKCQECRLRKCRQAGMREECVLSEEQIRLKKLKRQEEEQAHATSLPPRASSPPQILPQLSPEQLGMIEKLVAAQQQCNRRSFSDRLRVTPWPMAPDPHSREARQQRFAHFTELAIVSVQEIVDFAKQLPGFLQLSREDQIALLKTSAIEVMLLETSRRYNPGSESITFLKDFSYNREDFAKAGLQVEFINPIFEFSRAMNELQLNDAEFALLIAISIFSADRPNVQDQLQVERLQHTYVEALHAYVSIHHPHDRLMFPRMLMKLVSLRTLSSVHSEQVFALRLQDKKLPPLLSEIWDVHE
# LXRa:RXRa, sequence (P19793 whole entry, chain 2 of 2): as the sequence (P19793 whole entry, chain 2 of 2) above
# RARb:RXRa, sequence (P10826 whole entry, chain 1 of 2): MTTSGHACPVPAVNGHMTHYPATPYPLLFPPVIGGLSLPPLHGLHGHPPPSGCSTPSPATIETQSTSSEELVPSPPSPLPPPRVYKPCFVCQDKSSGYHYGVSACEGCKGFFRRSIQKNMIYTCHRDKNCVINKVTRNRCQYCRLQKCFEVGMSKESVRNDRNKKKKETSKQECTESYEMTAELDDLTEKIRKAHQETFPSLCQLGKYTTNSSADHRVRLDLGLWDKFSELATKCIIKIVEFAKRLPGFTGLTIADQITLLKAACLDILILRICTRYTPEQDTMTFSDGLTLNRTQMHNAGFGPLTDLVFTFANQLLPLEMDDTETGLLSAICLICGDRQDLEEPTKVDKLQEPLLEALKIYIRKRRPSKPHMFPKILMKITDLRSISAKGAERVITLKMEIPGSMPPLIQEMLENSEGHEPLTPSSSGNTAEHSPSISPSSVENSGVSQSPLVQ
# RARb:RXRa, sequence (P19793 whole entry, chain 2 of 2): as the sequence (P19793 whole entry, chain 2 of 2) above
binder,measurement,setting,value
B1,binding signal,PPARg:RXRa,6.58 PBM z-score against 500 random probes
B2,binding signal,PPARg:RXRa,6.68 PBM z-score against 500 random probes
B3,binding signal,PPARg:RXRa,6.11 PBM z-score against 500 random probes
B4,binding signal,LXRb:RXRa,7.25 PBM z-score against 500 random probes
same,binding signal,PXR:RXRa,6.87 PBM z-score against 500 random probes
same,binding signal,VDR:RXRa,6.99 PBM z-score against 500 random probes
same,binding signal,LXRa:RXRa,8.36 PBM z-score against 500 random probes
B5,binding signal,PPARg:RXRa,6.34 PBM z-score against 500 random probes
B6,binding signal,PPARg:RXRa,6.9 PBM z-score against 500 random probes
B7,binding signal,PPARg:RXRa,6.78 PBM z-score against 500 random probes
B8,binding signal,PPARg:RXRa,6.45 PBM z-score against 500 random probes
B9,binding signal,PPARg:RXRa,7.03 PBM z-score against 500 random probes
B10,binding signal,PPARg:RXRa,14.6 PBM z-score against 500 random probes
B11,binding signal,RXRa,9.06 PBM z-score against 500 random probes
same,binding signal,LXRb:RXRa,6.25 PBM z-score against 500 random probes
same,binding signal,FXR:RXRa,8.82 PBM z-score against 500 random probes
same,binding signal,PXR:RXRa,6.64 PBM z-score against 500 random probes
same,binding signal,RARg:RXRa,8.38 PBM z-score against 500 random probes
same,binding signal,PPARa:RXRa,6.96 PBM z-score against 500 random probes
same,binding signal,LXRa:RXRa,7.32 PBM z-score against 500 random probes
same,binding signal,RARb:RXRa,6.27 PBM z-score against 500 random probes
B12,binding signal,PPARg:RXRa,6.21 PBM z-score against 500 random probes

# — publication PMC6555819, “Comprehensive study of nuclear receptor DNA binding provides a revised framework for understanding receptor specificity”
